Laboratory results taken from EP3782644A1.

Biological target: ErbB2-Domain4 protein (human) (UniProt P04626)
Assay: indirect ELISA, ErbB2-Domain4 protein coated at 100 ng/well, antibody in serial dilution, absorbance at 450 nm

B1: anti-ErbB2 monoclonal antibody 19G9 (antibody, V domains shown)
VH: LEQSGPGILQPSQTLSLICSFSGFSLSTSGMGVSWIRQPSGKGLEWLAHIYWDDDKRYNPSLKSRLTISKDTSSKQVFLKITSVDTADTATYYCALFAYYNYDGTVDYWGLGTSVTVSS
VL: DIVMTQTPSSLAVSVGEKVTMSCKSSQSLLHSRTRKNYLAWYQQKLGQSPKLLIYWASTRESGVPDRFTGSGSGTDFTLTISSVEAEDLAVYYCKQSYNLYTFGGGTKLEIK
With B1 as the binder, how does the EC50 read?
Its EC50 is 100 nM.
